Reference: patent US20180208918A1
Blank lines part the entries; values can stand above or below the molecule they belong to.

Key:
[1] = tested on: pPROT8 derived LacZ-proELA-1 fusion protein [β-galactosidase: P00722]
[2] = tested on: recombinant MBP-proELA-1 fusion protein (from pPROT5)
[3] = target: recombinant trypsin (TrypZean) (UniProt P00760); assay: cell-based or functional assay
UniProt P00760, sequence (P00760 24-246): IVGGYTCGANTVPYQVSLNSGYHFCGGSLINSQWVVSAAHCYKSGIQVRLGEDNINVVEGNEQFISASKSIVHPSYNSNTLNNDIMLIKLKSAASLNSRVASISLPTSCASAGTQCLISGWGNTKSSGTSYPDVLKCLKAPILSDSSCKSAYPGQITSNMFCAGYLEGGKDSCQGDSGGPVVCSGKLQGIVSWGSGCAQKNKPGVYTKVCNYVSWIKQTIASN

Molecule: trypsin
- conversion of the fusion protein to enzymatically active human ELA-1 with trypsin [1]: it could not be converted to enzymatically active human ELA-1 with trypsin
- digestion of the fusion protein with trypsin (SDS-PAGE; elastase activity by SLAP assay) [2]: The soluble recombinant MBP-proELA-1 protein could be digested with trypsin to yield both MBP and mature human ELA-1

- Mean trypsin activity (BENZ assay), TrypZean concentration equivalent; PRT-201 from clone 55M3 Vial #1 plus TrypZean spike (to 100 ng/mL) and SBTI (to 10 ug/mL); spike without SBTI 118.7 [3]: < 1.56 ng/mL
- Mean trypsin activity (BENZ assay), TrypZean concentration equivalent; PRT-201 from clone 55M3 Vial #2 plus TrypZean spike (to 100 ng/mL) and SBTI (to 10 ug/mL); spike without SBTI 122.4 [3]: < 1.56 ng/mL
- Mean trypsin activity (BENZ assay), TrypZean concentration equivalent; PRT-201 from clone 55M3 Vial #3 plus TrypZean spike (to 100 ng/mL) and SBTI (to 10 ug/mL); spike without SBTI 122.8 [3]: < 1.56 ng/mL
- Mean trypsin activity (BENZ assay), TrypZean concentration equivalent; PRT-201 from trypsin activated clone plus SBTI (to 10 ug/mL); intrinsic activity without SBTI 8.7 [3]: < 1.56 ng/mL
- Mean trypsin activity (BENZ assay), TrypZean concentration equivalent; PRT-201 from trypsin activated clone plus TrypZean spike (to 100 ng/mL) and SBTI (to 10 ug/mL); spike without SBTI 130.0 [3]: < 1.56 ng/mL
- Mean trypsin activity (BENZ assay), TrypZean concentration equivalent; TrypZean standard 1.56 ng/mL plus SBTI (to 10 ug/mL); without SBTI 2.7 [3]: < 1.56 ng/mL
- Mean trypsin activity (BENZ assay), TrypZean concentration equivalent; TrypZean standard 3.13 ng/mL plus SBTI (to 10 ug/mL); without SBTI 3.7 [3]: < 1.56 ng/mL
- Mean trypsin activity (BENZ assay), TrypZean concentration equivalent; TrypZean standard 6.25 ng/mL plus SBTI (to 10 ug/mL); without SBTI 6.5 [3]: < 1.56 ng/mL
- Mean trypsin activity (BENZ assay), TrypZean concentration equivalent; TrypZean standard 12.5 ng/mL plus SBTI (to 10 ug/mL); without SBTI 11.2 [3]: < 1.56 ng/mL
- Mean trypsin activity (BENZ assay), TrypZean concentration equivalent; TrypZean standard 25 ng/mL plus SBTI (to 10 ug/mL); without SBTI 23.5 [3]: < 1.56 ng/mL
- Mean trypsin activity (BENZ assay), TrypZean concentration equivalent; TrypZean standard 50 ng/mL plus SBTI (to 10 ug/mL); without SBTI 49.4 [3]: < 1.56 ng/mL
- Mean trypsin activity (BENZ assay), TrypZean concentration equivalent; TrypZean standard 100 ng/mL plus SBTI (to 10 ug/mL); without SBTI 102.4 [3]: < 1.56 ng/mL
B1: soybean trypsin inhibitor (SBTI) (protein, UniProt P01070 25-205, looked up)
chain: DFVLDNEGNPLENGGTYYILSDITAFGGIRAAPTGNERCPLTVVQSRNELDKGIGTIISSPYRIRFIAEGHPLSLKFDSFAVIMLCVGIPTEWSVVEDLPEGPAVKIGENKDAMDGWFRLERVSDDEFNNYKLVFCPQQAEDDKCGDIGISIDHDDGTRRLVVSKNKPLVVQFQKLDKESL
